Experimental data reported in the supplement of paper PMC7877785.
± gives the uncertainty stated by the source.

Experiment: self-splicing fitness, log relative to wild type (ln ratio); higher = more splicing; Tetrahymena group I intron in knt gene, E. coli kanamycin selection, DiMSum; sequences stand for … in CUCUCU…GGAGGGAAAAGUUAUCAGGCAUGCACCUGGUAGCUAGUCUUUAAACCAAUAGAUUGCAUCGGUUUAAAAGGCAAGACCGUCAAAUUGCGGGAAAGGGGUCAACAGCCGUUCAGUACCAAGUCUCAGGGGAAACUUUGAGAUGGCCUUGCAAAGGGUAUGGUAAUAAGCUGACGGACAUGGUCCUAACCACGCAGCCAAGUCCUAAGUCAACAGAUCUUCUGUUGAUAUGGAUGCAGUUCACAGACUAAAUGUCGGUCGGGGAAGAUGUAUUCUUCUCAUAAGAUAUAGUCGGACCUCUCCUUAAUGGGAGCUAGCGGAUGAAGUGAUGCAACACUGGAGCCGCUGGGAACUAAUUUGUAUGCGAAAGUAUAUUGAUUAGUUUUGGAGUACUCGUGGUCG
Method in brief: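 DiMSum derived fitness as the error-weighted combination of fold changes across replicates, kanamycin versus no kanamycin, normalised to wild type. E. coli BL21(DE3) held the library, which randomised all eight P1ex-region intron nucleotides within the knt kanamycin-resistance gene on pET-22b(+). Six replicate transformations grew overnight at 37°C or 30°C on LB agar with or without 25 μg/mL kanamycin, also containing 100 μg/mL carbenicillin, 50 μM IPTG and 0.2% rhamnose, and pooled colonies were amplicon-sequenced on an Illumina HiSeq 2500.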

Sequence | self-splicing fitness (ln) (30 °C) | self-splicing fitness (ln) (37 °C)
CAACAGCAAUAUUACGUUCU | -1.32 ± 0.073 | -0.92 ± 0.094
CAACAGCAAUAUUACGUUGC | -4.78 ± 0.36 | -1.54 ± 0.14
CAAGAGCAAUAUUACGAACG | -0.336 ± 0.063 | 0.335 ± 0.079
CAAGAGCAAUAUUACGAGCA | -2.85 ± 0.28 | -2.63 ± 0.38
CAAGAGCAAUAUUACGAGUG | -1.46 ± 0.089 | -1.23 ± 0.12
CAAGAGCAAUAUUACGAUAU | -3.3 ± 0.29 | -2.7 ± 0.3
CAAGAGCAAUAUUACGCAUU | -3.39 ± 0.27 | -2.51 ± 0.21
CAAGAGCAAUAUUACGCCCG | -1.84 ± 0.2 | -1.03 ± 0.22
CAAGAGCAAUAUUACGCCGU | -1.59 ± 0.47 | 
CAAGAGCAAUAUUACGCGCG | -1.47 ± 0.093 | -0.891 ± 0.13
CAAGAGCAAUAUUACGCGCU | -3.72 ± 0.4 | -2.34 ± 0.33
CAAGAGCAAUAUUACGCUGA | -2.97 ± 0.19 | -2.08 ± 0.21
CAAGAGCAAUAUUACGCUGU | -3.93 ± 0.36 | -2.34 ± 0.24
CAAGAGCAAUAUUACGCUUC | -3.61 ± 0.37 | -2.23 ± 0.43
CAAGAGCAAUAUUACGGAAC | -3.74 ± 0.17 | -2.52 ± 0.19
CAAGAGCAAUAUUACGGCAG | -1.54 ± 0.091 | -0.926 ± 0.13
CAAGAGCAAUAUUACGGCUC | -3.78 ± 0.24 | -2.27 ± 0.32
CAAGAGCAAUAUUACGGGAG | -2.35 ± 0.11 | -1.8 ± 0.12
CAAGAGCAAUAUUACGGGGC | -1.99 ± 0.14 | -3.02 ± 0.25
CAAGAGCAAUAUUACGUAGC |  | -1.86 ± 0.43
CAAGAGCAAUAUUACGUGAA | -3.89 ± 0.22 | -2.75 ± 0.23
CAAGAGCAAUAUUACGUGCC | -3.59 ± 0.32 | -3.51 ± 0.39
CAAGAGCAAUAUUACGUGCG | -1.17 ± 0.074 | 0.135 ± 0.09
CAAGAGCAAUAUUACGUGGC | -3.77 ± 0.2 | -3.41 ± 0.28

Sequence | self-splicing fitness (ln) (30 °C) | self-splicing fitness (ln) (37 °C)
CAAGAGCAAUAUUACGUGUC | -4.19 ± 0.2 | -3.11 ± 0.2
CAAUAGCAAUAUUACGAAAC |  | -1.35 ± 0.24
CAAUAGCAAUAUUACGAAAG | -1.47 ± 0.082 | -0.294 ± 0.13
CAAUAGCAAUAUUACGAACC | -2.22 ± 0.35 | 
CAAUAGCAAUAUUACGAACG | -0.128 ± 0.053 | 0.24 ± 0.07
CAAUAGCAAUAUUACGAACU | -3.14 ± 0.27 | -1.83 ± 0.18
CAAUAGCAAUAUUACGAAGC | -3.01 ± 0.32 | -2.73 ± 0.32
CAAUAGCAAUAUUACGACAA | -3.42 ± 0.18 | -2.07 ± 0.15
CAAUAGCAAUAUUACGAGUG | -0.279 ± 0.079 | -0.905 ± 0.11
CAAUAGCAAUAUUACGAUCU | -3.45 ± 0.22 | -1.91 ± 0.21
CAAUAGCAAUAUUACGAUGA | -2.26 ± 0.18 | -1.54 ± 0.23
CAAUAGCAAUAUUACGAUGU | -3.19 ± 0.14 | -2.32 ± 0.2
CAAUAGCAAUAUUACGCACG | -1.01 ± 0.19 | -1.12 ± 0.17
CAAUAGCAAUAUUACGCAGG | -1.75 ± 0.13 | -0.433 ± 0.11
CAAUAGCAAUAUUACGCCGG | 0.0303 ± 0.12 | 0.077 ± 0.15
CAAUAGCAAUAUUACGGAAG | -1.36 ± 0.074 | -0.459 ± 0.09
CAAUAGCAAUAUUACGGACG | -0.294 ± 0.058 | 0.146 ± 0.075
CAAUAGCAAUAUUACGGCGU | -2.07 ± 0.11 | -0.986 ± 0.12
CAAUAGCAAUAUUACGGGCG | 0.548 ± 0.093 | 0.28 ± 0.11
CAAUAGCAAUAUUACGGGGA | -3.12 ± 0.39 | -2.61 ± 0.24
CAAUAGCAAUAUUACGGGUU | -4.25 ± 0.2 | -2.31 ± 0.14
CAAUAGCAAUAUUACGUAUG | -1.66 ± 0.12 | -1.7 ± 0.12
CAAUAGCAAUAUUACGUCCA | -2.87 ± 0.29 | -2.25 ± 0.25
CAAUAGCAAUAUUACGUCUC | -2.8 ± 0.18 | -3.4 ± 0.33

Sequence | self-splicing fitness (ln) (30 °C) | self-splicing fitness (ln) (37 °C)
CAAUAGCAAUAUUACGUGUA | -3.98 ± 0.18 | -2.29 ± 0.11
CAAUAGCAAUAUUACGUUAG | -1.44 ± 0.057 | -0.481 ± 0.074
CAAUAGCAAUAUUACGUUGU | -3.27 ± 0.14 | -2.12 ± 0.17
CACAAGCAAUAUUACGAAUA | -2.08 ± 0.27 | -2.71 ± 0.23
CACAAGCAAUAUUACGAAUU | -3.63 ± 0.26 | -2.75 ± 0.21
CACAAGCAAUAUUACGACGU | -2.15 ± 0.086 | -0.614 ± 0.077
CACAAGCAAUAUUACGACUC | -1.97 ± 0.11 | -0.998 ± 0.12
CACAAGCAAUAUUACGAGUU | -2.91 ± 0.11 | -1.13 ± 0.089
CACAAGCAAUAUUACGAUAG | -0.655 ± 0.046 | 0.242 ± 0.062
CACAAGCAAUAUUACGAUAU | -3.34 ± 0.21 | -2.52 ± 0.15
CACAAGCAAUAUUACGAUCC | -2.35 ± 0.21 | -1.45 ± 0.23
CACAAGCAAUAUUACGCAAU | -3.31 ± 0.23 | -3.31 ± 0.26
CACAAGCAAUAUUACGCACC | -3.98 ± 0.37 | -2.4 ± 0.3
CACAAGCAAUAUUACGCCAA | -2.76 ± 0.27 | -2.01 ± 0.21
CACAAGCAAUAUUACGCCAG | -1 ± 0.08 | -1.09 ± 0.11
CACAAGCAAUAUUACGCCUA | -1.01 ± 0.091 | -0.204 ± 0.085
CACAAGCAAUAUUACGCUGG | -4.18 ± 0.23 | -1.74 ± 0.14
CACAAGCAAUAUUACGCUUC | -3.67 ± 0.18 | -2.59 ± 0.27
CACAAGCAAUAUUACGGAAC | -4.35 ± 0.24 | -3.71 ± 0.25
CACAAGCAAUAUUACGGACU | -2.54 ± 0.14 | -2.11 ± 0.14
CACAAGCAAUAUUACGGCAA | -2.21 ± 0.1 | -1.55 ± 0.089
CACAAGCAAUAUUACGGGGG | -3.12 ± 0.11 | -2.1 ± 0.11
CACAAGCAAUAUUACGGUGC | -3.25 ± 0.2 | -2.72 ± 0.24
CACAAGCAAUAUUACGUAAU | -3.79 ± 0.14 | -1.65 ± 0.1

Sequence | self-splicing fitness (ln) (30 °C) | self-splicing fitness (ln) (37 °C)
CACAAGCAAUAUUACGUAUU | -3.81 ± 0.17 | -2.66 ± 0.15
CACAAGCAAUAUUACGUCUG | -1.34 ± 0.07 | -0.0931 ± 0.074
CACAAGCAAUAUUACGUGCG | -2.32 ± 0.098 | -0.908 ± 0.082
CACAAGCAAUAUUACGUUUA | -2.95 ± 0.15 | -1.95 ± 0.13
CACCAGCAAUAUUACGAAAA | -3.1 ± 0.2 | -2.33 ± 0.2
CACCAGCAAUAUUACGAAGC | -3.27 ± 0.15 | -2 ± 0.14
CACCAGCAAUAUUACGAAGG | -1.1 ± 0.046 | -0.304 ± 0.077
CACCAGCAAUAUUACGACGA | -2.13 ± 0.14 | -1.54 ± 0.12
CACCAGCAAUAUUACGACUA | -0.763 ± 0.12 | -1.3 ± 0.17
CACCAGCAAUAUUACGAUAU | -3.22 ± 0.17 | -2.46 ± 0.2
CACCAGCAAUAUUACGAUCU | -4.3 ± 0.23 | -2.43 ± 0.15
CACCAGCAAUAUUACGAUGC | -2.96 ± 0.13 | -2.06 ± 0.14
CACCAGCAAUAUUACGAUUC | -2.18 ± 0.094 | -2.32 ± 0.18
CACCAGCAAUAUUACGCAAG | -0.716 ± 0.093 | -0.12 ± 0.11
CACCAGCAAUAUUACGCAGA | -3.13 ± 0.13 | -2.57 ± 0.13
CACCAGCAAUAUUACGCGCU | -3.42 ± 0.14 | -2.59 ± 0.16
CACCAGCAAUAUUACGCUGA | -3.31 ± 0.17 | -2.68 ± 0.15
CACCAGCAAUAUUACGCUUA | -2.24 ± 0.09 | -1.23 ± 0.083
CACCAGCAAUAUUACGGCAU | -2.64 ± 0.066 | -0.735 ± 0.069
CACCAGCAAUAUUACGGCGU | -2.28 ± 0.097 | -0.886 ± 0.11
CACCAGCAAUAUUACGGGAC | -4.05 ± 0.13 | -2.05 ± 0.1
CACCAGCAAUAUUACGGGUG | -3.87 ± 0.15 | -2.26 ± 0.15
CACCAGCAAUAUUACGGUCG | -1.28 ± 0.062 | -0.351 ± 0.069
CACCAGCAAUAUUACGGUCU | -1.44 ± 0.044 | -1.04 ± 0.057
